Data on one molecule can be found in US20250136708A1 (YEDA RESEARCH AND DEVELOPMENT, published 2025).

The target of test [1] is T1, human ATP6V1B2 on the surface of senescent human cells (IMR-90 lung fibroblasts, IPF lung fibroblasts, A549 … (human, UniProt P21281 1-511)).
T1 construct: whole, on cells; Endogenous protein on cells; also called surface ATP6V1B2; surface protein expressed in senescent human lung fibroblasts
Nature of the test: FACS, non-permeabilized senescent IMR-90 cells, antibody at 10 ug/ml. How it is done:
(§1) Control, growing IMR-90 or CCL-206 cells were seeded 24h prior to testing day. On testing day, the medium was aspirated, and cells were gently detached using warm TrypLE Express solution (Thermo Fisher Scientific) followed by the addition of cold FACS buffer (PBS/5% FBS). ATP6V1B2 antibodies were added to the tubes containing the cells and the tubes were incubated for 60-70 minutes at 4C and centrifuged. Antibodies 2G05, 2E11 and 4G06 were tested at 10 ug/ml. Commercial antibodies-LS-B13421 (LS Bio), ab200839 (Abcam), and SC-55544 (Santa Cruz) were used at 20 ug/ml. Two hundred fifty ul of secondary antibody (anti mouse Alexa 647, Jackson 115-605-146 diluted in FACS buffer 1:300) were added and the tubes were incubated for 40 minutes at 4 C. Following incubation, 600 ul FACS buffer supplemented with DAPI (diluted 1:20,000) were added to each tube and the tubes were centrifuged. Cell pellets were resuspended in 200 ul FACS buffer. The samples were analyzed using GUAVA Flow Cytometry analyzer. Data was analyzed using the FCSalyzer 0.9.18-alpha software. Duplicates and dead cells (DAPI positive cells) were excluded.

The target in test [2] is T2, mouse ATP6V1B2 on the surface of senescent mouse lung fibroblasts (CCL-206) (mouse, UniProt P62814 1-511).
T2 construct: whole, on cells; Endogenous protein on mouse cells
Nature of the test: FACS, non-permeabilized senescent CCL-206 cells, antibody at 10 ug/ml. As to the method: Surface binding was examined in non-permeabilized cells using FACS. FIG. 4A: antibody 2G05.
as §1

T1 sequence (P21281 whole entry): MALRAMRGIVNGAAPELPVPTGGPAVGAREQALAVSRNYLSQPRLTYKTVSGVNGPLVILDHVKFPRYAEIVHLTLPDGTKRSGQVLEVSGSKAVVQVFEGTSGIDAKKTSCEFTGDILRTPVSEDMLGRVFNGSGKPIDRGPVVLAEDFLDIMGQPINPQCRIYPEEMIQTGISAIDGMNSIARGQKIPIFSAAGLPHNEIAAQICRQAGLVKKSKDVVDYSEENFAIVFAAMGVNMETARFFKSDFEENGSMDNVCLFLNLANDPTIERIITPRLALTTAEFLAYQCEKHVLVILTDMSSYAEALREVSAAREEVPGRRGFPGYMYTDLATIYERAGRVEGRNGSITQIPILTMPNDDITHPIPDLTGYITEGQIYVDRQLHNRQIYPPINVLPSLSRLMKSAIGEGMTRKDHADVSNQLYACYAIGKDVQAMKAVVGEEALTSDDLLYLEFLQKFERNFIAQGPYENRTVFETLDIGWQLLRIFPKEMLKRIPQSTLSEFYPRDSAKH
T2 sequence (P62814 whole entry): as the sequence (P21281 whole entry) above, with A25M, V26A, R460K, A464T, F474Y counted along it

B1: anti-ATP6V1B2 antibody 2E11 (antibody, V domains shown)
VH: EVQLQQSGAELVKPGASAKMSCRAPGYTFTSYWITWVKQRPGQGLEWIGDIYPGSGSTNYNEKFKTKATLTVDTSSSTAYMQLSSLTSEDSAVYYCAELGTFDYWGQGTTLTVST
VL: DVVVTQTPLSLPVSLGDQASISCRSSQSLVHSNGNTYLHWYLQKPGQSPKLLIYKVSNRFSGVPDRFSGSGSGTDFTLKISRVEAEDLGVYFCSQSTHVPYTFGGGTKLEIK
notes: detection was with an anti-mouse secondary antibody
Take B1: the binding result in test [1] and in test [2] was “binds” in each case.
